Data reported in the domain aggregation screens of Martell et al. (2025).

test: soluble fraction after stress (log2 fold change); higher = more stays soluble; pooled small domains, quantitative proteomics; conditions: stress: pH 4
Outline: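 Values are on a log2 scale, where higher means more of the domain stayed soluble after pH 4 stress. They are fold changes in the soluble amount of each domain from pooled custom libraries, measured by high-throughput quantitative proteomics. The fold change is taken to reflect aggregation propensity.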

Row | Sequence | soluble fraction (log2)
1 | HMEEVVIPDLAGLTEEEATKVLMAKELKLKVSGSQHSDIEKGLIISQDPPAGEKGAKNSQVAVVTSSG | -0.000599
2 | HMEFDFGAILSGNGGSELYSGYSAEQKAALVEAAKADGMDVEFGADGSTTFKDKDGSEVVQKADGTWTV | -0.0653
3 | HMEFDVELTSFEEAKKLKVIKEVKDVTGLSLGEAKDLVMGAPKAIKTGVSKEEAEAIKTQIEAAGAVVTI | -0.699
4 | HMEFDYIVKVPDVRNKKIEDAGKILIDLGLKYTTESDYITQDLKVIDQFPLPGTEVSKGSIIDIYLEEDFK | -0.446
5 | HMEFEKYKYHYIFDDVLGLRIVWDRGKEHFSYFVNEELAEKSRKSDKDALEVMFYLEHKRWPEEGELENY | -1.07
6 | HMEFEYTVVVPETRGKTIGEAGRILLDLELKYTSESMNIREDSKVIDQFPSPGTEVSKGSIIDLYLDE | -1.91
7 | HMEFQISLAAARVNANMTQEDTARAMKVSKTTIVNWEKGKVIPGIPEVEMMSRLYGIPQDYIFLP | -0.796
8 | HMEFSYLEEIGHEKGDLIKGLQLIQQKEGYVSDDAVRAVAENFGMSPAEVEGVLTFYAQFKR | -1
9 | HMEGFKSVYFLTTPSGAEISDRSVGDIISKTPSLVSAQEGTEFEFNLKGYQPSFYMINKRSPDRVFVELIP | -0.575
10 | HMEGLEKDDGGYYFEKDNGERARNEWVYVEYEGKGYWYYMTDYGYPLRSAITPDGYKVNSNGHWIDEGN | -1.12
11 | HMEGLESVVPDLRGKSLKSAAIAAGLSGFALSPEGSGIVYKQSPAPGGRYLKGTLIAVWLRT | 0.22
12 | HMEGMQATVTQITDEGITVRYVMNGQMVTRTLTSDEVAFVNRGQAVSDLAGAYRVGQTVWIY | -0.179
13 | HMEGNAFASTGDPEADILDITAVHPMRRDAVEELLARSGAEWSLVEGMLRDGKITMAPWEGEEFFIRS | -1.35
14 | HMEGNWGLWAKVPNRFAALTTDKDSALRRFKSKEDGEAWMASHGLKPERFDVLEIPADYKPA | -0.0509
15 | HMEGRHFRILYILLNNERVTAPELAEEFGVSVRTIYRDIDTMSAAGIPIYMQGGRKGGIYLLEGY | -1.61
16 | HMEGSRASMDGQVPGKTSYLEWLARQPAQRQDQVLGAERGRLFRAGEIDLADMFTDKGEWISLERLKQLS | -0.284
17 | HMEGVSNLIVSVTRVKVTVDLSQAKVYLSIFPSEQAAFYLNALQQNRFQLKHDLSQLLKNQLRRIPTLQF | -0.0019
18 | HMEHDYGLSGREREVLELMVQGLVKKEIADRLALSYHTVDNHLRSIYAKLQVHTRGGAVAKALSEHLVPP | -0.483
19 | HMEHGQWLSEAQGASLAADWLARRRGVLPLNARRHLSGLSDQIARQIEGGLSREAGLYTAHEMMESLDP | -0.217

Row | Sequence | soluble fraction (log2)
20 | HMEHNDPEVERTMFQGLEALKLQLFEKAFGHFSLLIKLAPDYAEAWNKRATVLYLMGRFKESESDVMRTLE | -0.0178
21 | HMEHQLLHMEKTIFEEIADDYPQLNHTKIRNVLAAFLFTNDDVFKRIADLSGGERGRVSLAKLMLSDA | -0.816
22 | HMEHTPYLTEREADVVRLLVSGLDTAQIAQRLGIKTATVTAHKKHIFLKIGVRNTTQLVAWALIR | -0.557
23 | HMEIELHNLALNIKEFRKKNKLSQAELAEKLGVARTTIGYYERAEVEPNIYTLVQLSKLMNRSIDSLLGL | -0.0684
24 | HMEIFYGDDRVYTVSLHGQNNFPFRKKTSDFDYGFEDGTGDEEYLRVLDVTLSRLENEQFDLLFFQAGV | -0.842
25 | HMEIFYSARAWAKLNDLVATRTYLQHLGAIAGRIGRSEGLSPDRIPDGRDGAVNGWPLWVWDRAYAEVS | -0.245
26 | HMEIGLIRVDSRLIHGQVITKWLNYSKANVIVVVDDELSKDSFMSEIYKASAPNGIIVEILSIDDFMKNT | -0.142
27 | HMEIHIGSLIKEKMEERGLSVSDFAHALHYERTNIYKIFKRSSIDVDLLLRISEVLAYDFLREVYL | -1.9
28 | HMEINKLIELIGGYKALSEVLNVSKSAISNYKKRGSLPSYAIPIIVKELKSKGISIDLSEFT | -0.0727
29 | HMEISAIIGNNLQQLRKEQGLSLDQLALKTGVSKAVLSQLENGKANPTINTIWKIATALHVTYSALLEPP | -0.347
30 | HMEISEILNPPLVTAMAERYPEVDVSYYRDKYILYYESREHKITDHRRNFEKWLLVESQKEEN | -1.66
31 | HMEISTENESFSNGLLEHPHYTRPPVWEDLKIPAVLMSGHHGKVAEWRKQQSEALTQERRPDLWEAFG | -0.0776
32 | HMEITSSNELKKMISNLINSENKNNPISDSNIVEKLKENDFLVARRTVAKYRKLLGIKNVNQRKE | 0.25
33 | HMEIYELTDQEQRVLEFIGEGMTNREIAKNMFLAEKTVKNYVSSLLRKLGLERRTQAAAMAVRLSV | -0.988
34 | HMEKAYVWTDTRTFDVQNYIGKKKSEVKNDQYGFEFLGEGDYVIDQLPRVGEQIEEGQKVKIMLGNQQEI | 0.117
35 | HMEKDKGTILKEARIKKGLTQEQLANNINYTRQYISKWENNISLPKDIQTLKKISNLLSIPLKELLPEDYL | 0.0442
36 | HMEKEFLFNGGKVVMNYEADRIQIMHDTKPGQDVITLMKKNGFKWSPFNKAWQRQITANAIYTTKHLINQ | -0.6
37 | HMEKGIVSNKTDKGYGFIRSSTGESIFVHINNVGKEAYEQLAKGSRVLFDYEVTDRGKRATKVMLEPSES | -0.401
38 | HMEKGLQYRRTDRAIMNAFIKLVNQGSFEKLTVQEILDEALVSRNTFYAHYRDIYDLMDALSN | -1.37
